Assay results: the Human Domainome abundance scans (Beltran et al. 2025)
± gives the uncertainty stated by the source.

B1: POU domain, class 3, transcription factor 1, residues 247 to 324; numbered along this chain, Q03052 (parent)
chain: EDAPSSDDLEQFAKQFKQRRIKLGFTQADVGLALGTLYGNVFSQTTICRFEALQLSFKNMCKLKPLLNKWLEETDSSS

Variants of: B1
Assay: abundance fitness (aPCA) (normalised: wild type 0, dead -1); higher = more abundant; growth selection in yeast, the domain comes from the species named
Settings: Homo sapiens

Row | Variant | abundance fitness
1 | EDANSSDDLEQFAKQFKQRRIKLGFTQADVGLALGTLYGNVFSQTTICRFEALQLSFKNMCKLKPLLNKWLEETDSSS [P4N] | -0.403 ± 0.23
2 | EDAPSSDDAEQFAKQFKQRRIKLGFTQADVGLALGTLYGNVFSQTTICRFEALQLSFKNMCKLKPLLNKWLEETDSSS [L9A] | -0.532 ± 0.11
3 | EDAPSSDDLEQFAKQFKQRRIKLGFTQADVGLALGTLYGNVFSQTTICRFEASQLSFKNMCKLKPLLNKWLEETDSSS [L53S] | 0.051 ± 0.058
4 | EDAPSSDDLEQFAKQFKQRRIKLGFTQADVGLALGTLIGNVFSQTTICRFEALQLSFKNMCKLKPLLNKWLEETDSSS [Y38I] | 0.108 ± 0.14
5 | EDAPSSDDLEQFAKQFKQRRIKLGFTQADVGLALGTLNGNVFSQTTICRFEALQLSFKNMCKLKPLLNKWLEETDSSS [Y38N] | 0.019 ± 0.12
6 | EDAPSSDDLEQFAKQFKQRRIKLGFTQADVGLALGTLYGNVQSQTTICRFEALQLSFKNMCKLKPLLNKWLEETDSSS [F42Q] | 0.001 ± 0.075
7 | EDAPSSDDLEQFAKQFKQRRIKLGFTQADVGLALGTYYGNVFSQTTICRFEALQLSFKNMCKLKPLLNKWLEETDSSS [L37Y] | 0.175 ± 0.15
8 | EDAPSSDDLEQFAKQFKQRRIKLGFTQADVGLALGTLYGNVFSQTTICRFEALQLSFKNMTKLKPLLNKWLEETDSSS [C61T] | -0.384 ± 0.083
9 | EDAPSSDDLEQFAKQFKQRRIKLGFTQADVGLALGTLYGNVFSQTTICRFEALQLSFKNECKLKPLLNKWLEETDSSS [M60E] | -0.948 ± 0.16
10 | EDAPSSDDLEQFAKQFKQRRIKLGFTQADVGLALGTLYGNVFSQTTICRFEALQLSFKNMCKLKPLLNKWLEETDSSE [S78E] | -0.045 ± 0.12
11 | EDAPSSDDLEQFAKQFKQRRIKLGFTQADVGLALGTLYGNVFSQTTICRFEALQLSFKNMCKLKPLLNKWLEMTDSSS [E73M] | -0.012 ± 0.063
12 | EDAPSSDDLEQFAKQFKQRRIKLGFTQADVGLALGTLYGNVFSQTTICRFEALQLSMKNMCKLKPLLNKWLEETDSSS [F57M] | -0.048 ± 0.086
13 | EDAPSSDDTEQFAKQFKQRRIKLGFTQADVGLALGTLYGNVFSQTTICRFEALQLSFKNMCKLKPLLNKWLEETDSSS [L9T] | -0.268 ± 0.11
14 | EDAPSSDDLEQFAKQFKQRRIKLGFTQADVGLALGTLYGNVFSQTTICRFEALQLVFKNMCKLKPLLNKWLEETDSSS [S56V] | -0.945 ± 0.13
15 | EDAPSSDDIEQFAKQFKQRRIKLGFTQADVGLALGTLYGNVFSQTTICRFEALQLSFKNMCKLKPLLNKWLEETDSSS [L9I] | -0.398 ± 0.21
16 | EDAPSSDDLEQFAKQFKQRRIKLGFTQADVGLALGTLSGNVFSQTTICRFEALQLSFKNMCKLKPLLNKWLEETDSSS [Y38S] | -0.026 ± 0.063
17 | EDAPSSDDLEQFAKQFKQRRIKLGFTQADCGLALGTLYGNVFSQTTICRFEALQLSFKNMCKLKPLLNKWLEETDSSS [V30C] | -0.319 ± 0.25
18 | EDAPSSDDLEQFANQFKQRRIKLGFTQADVGLALGTLYGNVFSQTTICRFEALQLSFKNMCKLKPLLNKWLEETDSSS [K14N] | -0.211 ± 0.15

Row | Variant | abundance fitness
19 | EDAPSSDDLEQFAKQFKQRRIKLGFTQADVGEALGTLYGNVFSQTTICRFEALQLSFKNMCKLKPLLNKWLEETDSSS [L32E] | -0.017 ± 0.066
20 | EDAPSSDDLEQFAKQFKQRRIKLGFTQADVGLALGTLYGNVFSQTTICRFEALQLSFKNMCKLKWLLNKWLEETDSSS [P65W] | -0.389 ± 0.073
21 | EDAPSSDDLEQTAKQFKQRRIKLGFTQADVGLALGTLYGNVFSQTTICRFEALQLSFKNMCKLKPLLNKWLEETDSSS [F12T] | -1.16 ± 0.46
22 | EDAQSSDDLEQFAKQFKQRRIKLGFTQADVGLALGTLYGNVFSQTTICRFEALQLSFKNMCKLKPLLNKWLEETDSSS [P4Q] | -0.24 ± 0.16
23 | EDAPSSDDLEQFAKQFKQRRIKLGFTQADVGLALGTLYGNVFSQTTICRFEALQLSFKNMCKLKPLLNKWLNETDSSS [E72N] | -0.152 ± 0.13
24 | EDAPSSDDLEQFAKQFKQRRIKLGFTQADVGLALGTLYGNVFSQTTICRFEALQLSFKNMCKLLPLLNKWLEETDSSS [K64L] | -0.511 ± 0.09
25 | EDRPSSDDLEQFAKQFKQRRIKLGFTQADVGLALGTLYGNVFSQTTICRFEALQLSFKNMCKLKPLLNKWLEETDSSS [A3R] | 0.222 ± 0.049
26 | EDAPSSDDLEQFAKQFKQRRIKWGFTQADVGLALGTLYGNVFSQTTICRFEALQLSFKNMCKLKPLLNKWLEETDSSS [L23W] | -0.224 ± 0.09
27 | EDAPSSDDLEQFAKQFKQRRIKLGFTQADVGLALGTLYGNVFSQTTICRFEALQLSFKNMCKLKPLLNKWLEETDTSS [S76T] | 0.103 ± 0.09
28 | EDAPSSDDLEQFAKQFKQRRIKLGFTQADVGFALGTLYGNVFSQTTICRFEALQLSFKNMCKLKPLLNKWLEETDSSS [L32F] | 0.186 ± 0.15
29 | EDAPSSDDLEQFAKQFKQRRIKLGFTQADVGLALGTLYGNVFSQTTICRFEALQLSFKNNCKLKPLLNKWLEETDSSS [M60N] | 0.011 ± 0.21
30 | EDAPLSDDLEQFAKQFKQRRIKLGFTQADVGLALGTLYGNVFSQTTICRFEALQLSFKNMCKLKPLLNKWLEETDSSS [S5L] | 0.129 ± 0.051
31 | EDAPSSDDLEQFAKQFKQRRIKLGFTQADVGLALGTLFGNVFSQTTICRFEALQLSFKNMCKLKPLLNKWLEETDSSS [Y38F] | -0.13 ± 0.12
32 | EDAPSSDDREQFAKQFKQRRIKLGFTQADVGLALGTLYGNVFSQTTICRFEALQLSFKNMCKLKPLLNKWLEETDSSS [L9R] | -0.678 ± 0.1
33 | EDAPSSDDLEQFAKQFKQRRIKLGFTQADVGLALRTLYGNVFSQTTICRFEALQLSFKNMCKLKPLLNKWLEETDSSS [G35R] | 0.005 ± 0.048
34 | EDAPSSDDLEQFAKQFKQRRIKLGFTQADVGLALGTLYGNVFSQTTIARFEALQLSFKNMCKLKPLLNKWLEETDSSS [C48A] | 0.129 ± 0.051
35 | EDAPSSDDLEQFAKQFKQRRIKLGFTQADVGLALGTLYGNVFSQTTICRFEALQLSGKNMCKLKPLLNKWLEETDSSS [F57G] | -0.275 ± 0.051
